Experiment [1] has as its system New Zealand White rabbits (C5a-induced neutropenia). As to the kind of experiment: C5a-induced neutropenia in the rabbit. The experiment is classed as in vivo. The note with it: i.v. bolus; for Inhibition of C5a-induced neutropenia vs vehicle-treated rabbits: 100 ng C5a i.v. As for the experimental part: All experiments were performed on male New Zealand White rabbits weighing 2.5-3.0 kg. Rabbits were anesthetized with 10 mg/kg xylazine and 50 mg/kg ketamine administered in combination intramuscularly. A 25 gauge butterfly catheter was inserted in the lateral ear vein to use for infusions. Each blood sample (0.2 ml) was collected from the central ear artery into a plastic syringe fitted with a 25 gauge, 5/8 inch needle and charged with 7.5% EDTA as an anticoagulant. Blood was immediately expressed into a microcentrifuge tubes containing 10 microliters of 7.5% EDTA. An initial arterial blood sample (#1) was obtained and immediately thereafter vehicle or the C5a analogue of Example 8 was infused intravenously (bolus injection). Twenty seconds later, a second blood sample (#2) was obtained and twenty seconds thereafter 100 ng of C5a in 0.2 ml were infused intravenously (bolus injection). Twenty seconds later, a third blood (#3) sample was taken. Thirty minutes later, a second round of blood sample (#4)--20 seconds--C5a infusion--20 seconds--blood sample (#5) was performed. Blood samples were evaluated by automated hematologic analysis (Technicon H*1) using software specific for rabbit blood. Reductions in neutrophil counts (number per milliliter) induced by C5a(C5a-induced neutropenia, determined by comparing blood sample #3 to #2 and #5 to #4) were compared between vehicle-treated and C5a analogue-treated animals.

The target in experiment [2] is T1, C5a receptor (Homo sapiens, UniProt P21730).
T1 construct: Neutrophils were purified from human peripheral blood; endogenous in cells; host or cells: neutrophils from human peripheral blood
T1 sequence (P21730 1-350): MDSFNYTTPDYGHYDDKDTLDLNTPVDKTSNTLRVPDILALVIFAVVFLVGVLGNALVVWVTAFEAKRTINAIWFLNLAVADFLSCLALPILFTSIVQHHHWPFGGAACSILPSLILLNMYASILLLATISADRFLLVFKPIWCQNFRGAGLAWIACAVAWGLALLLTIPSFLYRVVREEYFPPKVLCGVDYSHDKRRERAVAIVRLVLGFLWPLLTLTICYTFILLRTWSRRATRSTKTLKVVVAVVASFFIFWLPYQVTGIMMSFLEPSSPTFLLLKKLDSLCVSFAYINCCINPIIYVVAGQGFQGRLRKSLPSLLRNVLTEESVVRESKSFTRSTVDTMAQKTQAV
Briefly: Receptor binding assay: displacement of [125I]Bolton-Hunter-labelled C5a from PMNL membranes. The note with it: Table 4, [125I]BH-C5a 4.0 pM, 120 min at 4° C., Cheng-Prusoff. As to the method: C5a and C5a receptor antagonists were tested for their affinity for the C5a receptor. […] PMNLs were resuspended in Hanks balanced salt solution, without Ca^++ and Mg^++ and which contained 10 mM HEPES; at pH 7.3, 2.5 mM MgCl2, 100 units/ml DNAse I, 0.1 mM PMISF, 10 μg/ml aprotonin and 10 μg/ml leupeptin. They were then equilibrated at 400 psi for 20 min at 4° C. in a nitrogen cavitation bomb. After evacuation into 3 volumes 0.5 M KHCO3 containing 25 mM EDTA and the protease inhibitors listed above, the gelatinous material was removed with forceps and the mixture was centrifuged at 400×g for 10 min at 4° C. The resulting supernatant was centrifuged at 50,000×g for 60 min at 4° C. The pellets from the aliquots representing 200×10^6 cells were stored at -70° C. For binding studies, these membranes were resuspended at an equivalent of 20×10^6 cells/ml in 50 mM HEPES at pH 7.3, containing 1 mM CaCl2, 5 mM MgCl2, 0.1 mM PMSF, 0.1% bacitracin and 0.5% BSA.
Nonspecific binding was determined in the presence of 10 nM unlabelled C5a. The binding reaction was initiated by the addition of the PMNL membranes and was continued for 120 min at 4° C. Bound and free radioactivity were separated by vacuum filtration through GF/C glass fiber filters (Whatman), pretreated for 90 min with 0.05% PEI (polyethyleneimine) using a Cell Harvester (Brandel, Gaithersburg, Md.). Filters were washed with 3×5 ml of ice-cold 5 mM Tris buffer at pH 7.4 and counted in a multiwell Gamma counter (Genesys). Data were analyzed using the non-linear regression analysis program, RS/1 (Bolt, Beranek and Newman, Boston) and expressed as IC50 values. The results are set forth below in Table 4 as Ki values using the Cheng-Presoff equation. See Braunwalder et al., supra

In experiment [3] the test system is New Zealand White rabbits (C5a-induced enhancement in vascular permeability). Briefly: Rabbit dermal model of inflammation ([125I]-BSA exudation after intradermal C5a). The format is in vivo. As to the method: All experiments were performed on male New Zealand White rabbits weighing 2.5-3.0 kg. The backs; of the rabbits were shaved and 40-50 skin sites were designated with markers of different colors. Different stimuli (i.e., C5a, C5a analogue, C5a+C5a analogue, vehicle control, etc.) were injected intradermally at 0.1 ml/site using a sterile, disposable, 26 gauge, 0.5 in. needle and 1.0 cc tuberculin syringe. I.D. injections were administered in replicates of six, roughly 45 minutes before euthanization. C5a alone was injected at a dose of 50 ng/site, and the C5a receptor antagonists were co-injected at various concentrations with the same dose of C5a. At 20 minutes prior to euthanization, 18-36 uCi of [125I]-labeled bovine serum albumin in 1.0 ml physiological saline were introduced into the systemic circulation via the marginal auricular vein. At 45 minutes, the rabbit was euthanized with an I.V. overdose of sodium pentobarbital. […]
After death, the dorsal skin was excised and pinned to a wooden dissecting board. […] This procedure reduced variation among skin sites and decreased background radioactivity. […] Injection sites were then analyzed for their radioactive content using a Gamma Counter (Genesys).

Experiment [4] addresses T1, C5a receptor. As to the kind of experiment: C5a induced Ca++ rise in fura-2 loaded neutrophils (antagonist IC50 / agonist EC50). The format is cell-based. The note with it: highest concentration tested; agonist activity was not detected. An excerpt: The antagonism of the instant C5a analogues may be quantified as an IC50 in the calcium rise assay disclosed in Agents and Actions 21:375-378 (1987), described in detail in Example 7.
See Hugli et al., CRC Crit. Rev. Immunol. 1:321-326 (1981) and PCT WO 92/10205. A quantitative measure of this property may also be obtained using the calcium rise assay disclosed in Seligmann et al., supra, also described in Example 7. EC50 is a measure of agonistic activity. […] Applicants have not detected agonist activity of the instant C5a analogues up to a concentration of at Least about 8.0×10^-7 M, and preferably at least about 3.0×10^-6 M in the same calcium rise assay.
Recombinant human C5a was dissolved in Hanks buffer containing 0.01% Tween-20, and all stock dilutions of C5a were made in this buffer. The acetoxymethyl ester of fura-2 (fura 2AM, Molecular Probes) was dissolved in DMSO. Neutrophils were purified from human peripheral blood by sedimentation in 6% hetastarch (HESPAN, DuPont, Waukegan, Ill.), followed by counter flow elutriation as described in Chapman-Kirkland et al., J. Immunol. Meth. 142:95-104 (1991). Purified cells (2×10^6 /ml) were mixed with 0.2 uM fura- 2AM and incubated for 30 min at 37° C. in HEPES buffered Hanks solution without calcium or magnesium. Fifteen minutes before the assay, the cell suspension was transferred to a curvette containing a stir bar and calcium was added to 1 mM. The cell suspension was incubated with stirring at 37° C. Assays were terminated within 5 h of cell purification and a standard control response was obtained periodically to insure that the cell responses were not changing over the time of the experiment. The amount of fluorescence was determined using an SLM 8000 spectrofluorometer (SLM-Aminco Instruments, Urbana, Ill.). Curvettes were placed in the fluorometer and after obtaining a baseline for 10 sec, the C5a receptor antagonists to be tested for antagonistic properties were added and any change in fluoresence excitation ratio of 340 nm/380 nm (emission of 510 nm) was measured. Forty seconds after analogue addition, a challenge dose of C5a was added to a final concentration of 100 pM and the resulting change in excitation ratio was measured.
IC50 values were used as a measure of antagonist potency. These values are defined as the concentration of C5a analogue needed to reduce the calcium rise response of the 100 pM C5a challenge dose by 50%. EC50 values were used as a measure of agonist potency. […]

B1: C5a(1-71,T1M,C27S,Q71C) (protein, UniProt P01031 678-748, looked up, fragment T1M C27S Q71C)
chain: MLQKKIEEIAAKYKHSVVKKCCYDGASVNNDETCEQRAARISLGPRCIKAFTECCVVASQLRANISHKDMC
modifications: C5a anaphylatoxin
With B1, the “Inhibition of C5a-induced neutropenia vs vehicle-treated rabbits” value in experiment [1] (30-minute C5a challenge interval) was found to be 41%; in experiment [1] (40-second C5a challenge interval), 67%. In addition, in experiment [1] (before C5a challenge), the “Effect on baseline neutrophil counts (agonistic, C5a-like properties)” value is “did not alter baseline neutrophil counts from normal”. In the experiment with C5a receptor [2], affinity was put at a Ki of 0.2 nM. Besides, the “ID50 (50% reduction in the radioactivity produced by C5a)” value in experiment [3] (intradermal co-injection with 50 ng C5a/site) came to 70 ng/site. For the same molecule, the “Pro-inflammatory reaction (agonist properties in vivo)” value in experiment [3] (intradermal, 175 ng/site) is listed as “did not cause a pro- inflammatory reaction”. The “Concentration up to which tested and agonist activity not detected (calcium rise)” value with C5a receptor [4] was > 3 µM.

The values are drawn from US5837499A, “DNA encoding C5A receptor antagonists having substantially no agonist activity and methods of expressing same” (priority 1995, dated 1998).
